Experimental data taken from article PMC5353646, “Allosteric modulation of peroxisomal membrane protein recognition by farnesylation of the peroxisomal import receptor PEX19” (Nature Communications, 2017).
Residues, ends and D or L forms follow the SMILES beside them. No end group written: not given here. *: point of attachment. FITC = O=C1OC2(c3ccc(O)cc3Oc3cc(O)ccc32)c2ccc(NC(=S)*)cc21; fluorescein = fluorescein label on the N-terminus

How the values were obtained:
[1] = molecular target: FITC-labelled ALDP peptide (62-…-76) (human); assay: fluorescence polarisation; 20 nM FITC-ALDP peptide constant, 12-point titration of PEX19 CTD variants from 1 mM to 0.5 uM; 50 mM Tris pH 8.0, 50 mM NaCl; triplicates
[2] = NMR 13C secondary chemical shifts (peptide conformation); type: physicochemical; conditions: C-terminally extended version of the ALDP peptide with additional tryptophan (residue 68 to 82)
Excerpt: Phe71 aromatic ring protons
Residue number Leucine residue
Supplementary Figure 8: Intermolecular NOEs between PEX19 CTD and the ALDP peptide, and secondary structure of the latter. (a) 1H,1H plane of a 3D ω1-filtered, ω2-edited 13C-NOESY-HSQC experiment of farnesylated PEX19 CTD free (black) and bound to the ALDP peptide (red). Methyl and methylene protons of the unlabeled farnesyl group of the PEX19 CTD show NOEs with protons of the isotope-labeled farnesylated PEX19 CTD (black circles). In the presence of also unlabeled ALDP peptide additional intermolecular methyl-methyl and aliphatic-aromatic NOEs are observed (red circles and below). (b) NMR 13C secondary chemical shifts of a C-terminally extended […]
tion. (c) Due to signal overlap, 5 out of 7 spin systems for leucine residues were assigned. Nevertheless, also the leucines residues adopt a helical conformation.
(also on this page, place not known: (Leu75)(Leu76) (Leu81)(Leu82) 5 LeuC Cα- Cβ [p.p.m.] Cα- Cβ [p.p.m.] c ω2 ω1 1H (p.p.m.) ω1 1H (p.p.m.) QDPro273/Pro274 { - - { 5)

[3] = tested on: PEX19 CTD I195K; assay: Fluorescence polarization, ALDP peptide binding to PEX19 CTD I195K; set-up: species or system human; conditions: with or without farnesylation, FITC-labelled ALDP peptide 20 nM, triplicate (n = 3)
Method: (§1) ALDP peptide (62-AAKAGMNRVFLQRLL-76) fused N-terminally with fluorescein isothiocyanate (FITC), was purchased from Peptide Specialty Laboratories GmbH. The lyophilized powder was dissolved in 1 ml water resulting in a 5 mM stock solution. Overnight dialysis against buffer containing 50 mM Tris pH 8.0, 50 mM NaCl, removed trifluoroacetate counterions. For the determination of each binding curve a 12 point titration was performed with constant concentration of 20 nM labelled peptide with increasing concentrations of PEX19 CTD variants. Starting concentration of PEX19 CTD was 1 mM with 12 serial dilutions reaching 0.5 μM. Reaction mixtures were then transferred into 96-well Optiplate and measured as triplicates in PerkinElmer EnVision plate reader. […]
(§2) Supplementary Figure 6: ALDP af finity measurement for PEX19 CTD proteins using a fluorescence polarization assay . Polarization plots as a function of protein concentration for the direct titration of PEX19 non-farnesylated (black) and farnesylated (red) forms (wild type and residue spedific mutants) into fluorescein-labeled ALDP peptide. […]
(§3) (also on this page, place not known: assay. affinity Fluorescence polarization (mP) wt wtfarn Fluorescence polarization (mP) M179Rfarn 0.00 1.00 Fluorescence polarization (mP) M255Rfarn 0.00 1.00 Fluorescence polarization (mP) I195Kfarn Kd Kd /uni03BCM)

[4] = tested on: PEX19 CTD M255R; assay: Fluorescence polarization, ALDP peptide binding to PEX19 CTD M255R; set-up: species or system human; conditions: with or without farnesylation, FITC-labelled ALDP peptide 20 nM, triplicate (n = 3)
Method: as §1, §2, §3

[5] = tested on: PEX19 CTD M179R; assay: Fluorescence polarization, ALDP peptide binding to PEX19 CTD M179R; set-up: species or system human; conditions: with or without farnesylation, FITC-labelled ALDP peptide 20 nM, triplicate (n = 3)
Method: as §1, §2, §3

[6] = molecular target: T1, farnesylated wild type PEX19 CTD (Homo sapiens, UniProt P40855); assay: Fluorescence polarization, ALDP peptide binding to farnesylated wild type PEX19 CTD; conditions: ratio farnesylated vs non-farnesylated wild type PEX19 CTD
T1 construct: we studied the human PEX19 CTD (residues 161–299) that includes the native C-terminus; hexahistidine (TEV-cleavable) (cleaved yes); made in house; host or cells: Escherichia coli BL21 (DE3); farnesylated in vitro with recombinant S. cerevisiae farnesyl transferase
T1 sequence (P40855 161-299): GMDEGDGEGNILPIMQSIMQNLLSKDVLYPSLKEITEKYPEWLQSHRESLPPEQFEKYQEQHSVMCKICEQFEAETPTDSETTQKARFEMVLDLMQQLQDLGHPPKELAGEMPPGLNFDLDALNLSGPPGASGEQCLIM
Method: as §1, §2
standard deviations for triplicate measurements (n = 3).
as §3

[7] = molecular target: T2, farnesylated human PEX19 C-terminal domain (residues 161-299) (human, UniProt P40855 161-299, farnesyl group on Cys296 (CaaX box)); assay: FP; farnesylated PEX19
T2 chain: T1 sequence (P40855 161-299)

[8] = molecular target: T3, non-farnesylated human PEX19 C-terminal domain (residues 161-299) (human, UniProt P40855 161-299); assay: FP
T3 chain: T1 sequence (P40855 161-299)

[9] = tested on: peroxisome biogenesis in cells; conditions: ref Sacksteder et al, Gould J Cell Biol 2000; cited from earlier work
Excerpt: page 14: remnants (and this is also what can be seen in these figures). To improve clarity and avoid confusion, the authors should correct these mistakes. […] The sentence on page 9 now reads “Cells that are not complemented by functional PEX19 show a cytosolic mislocalization of the peroxisomal marker protein GFP-PTS1 and a diffuse background immunolabelling of the peroxisomal membrane protein PEX14 that is different from the peroxisomal pattern and known to be due to mislocalization to mitochondria (Fig. 5c, ΔPEX19).” Accordingly, the legend of Figure 5 ...

[10] = tested on: PEX19-deficient human fibroblasts (ΔPEX19 T); assay: Functional complementation of PEX19-deficient fibroblasts (peroxisomal protein import); type: cell-based; conditions: full-length PEX19 variants; 72 h after transfection; at least 100 cells in three independent transfections; series of Fig. 3c
Excerpt: A bicistronic expression plasmid coding for eGFP-PTS1 and non-tagged PEX14 (pMF1220)[43] was kindly provided by Marc Fransen (Leuven, Belgium). pIRES2-HsPEX19-eGFP-PTS1 was constructed by replacing the open reading frame of PEX14 (BglII/SalI) with a DNA-cassette encoding the full-length open reading frame of human PEX19 as derived from BamHI/SalI digestion of pAH05 (ref. [44]). Single point mutations were introduced into the PEX19 sequence by Quickchange XL Site-directed Mutagenesis kit (Stratagene) using primer pairs (Supplementary Table 1). The bicistronic expression vectors coding for PEX19 variants and eGFP-PTS1 were transfected into the human cell-line ΔPEX19 T which was derived from PEX19-deficient Zellweger patient fibroblasts. ΔPEX19 T cells, characterized by a defect in peroxisome biogenesis were routinely authenticated by functional complementation assays as described below and checked for mycoplasma contamination using Venor GeM Advance Mycoplasm Detection Kit (Minerva Biolabs). The efficiency of transfection according to the Amaxa Cell Line Nucleofector Kit R protocol (Lonza Cologne AG) was always around 90%. After 72 h of transfection, cells were subjected to fluorescence and immunofluorescence microscopy using polyclonal antiserum against human PEX14 (ref. [45]) (1:400 diluted) or monoclonal antibodies against human PEX19 (BD Biosciences, MA5-17266 Thermo Scientific; 1:400 diluted). Statistical analysis was carried out from three independent transfections of each pIRES-PEX19-eGFP-PTS1 expression plasmid. Based on the appearance of eGFP-PTS1 fluorescence pattern, about 100 cells of each experiment were visually categorized into three classes, (i) full complementation of peroxisomal import as visualized by punctuate staining pattern, (ii) partial complementation as indicated by diffuse cytosolic staining with few dots, (iii) no complementation resulting in only cytosolic staining. All micrographs were recorded on a Zeiss Axioplan 2 microscope with a Zeiss Plan-Apochromat × 63/1.4 oil objective and an Axiocam MR digital camera, and were processed with AxioVision 4.6 software (Zeiss, Jena, Germany). The steady-state level of PEX19 expression was assessed by immunoblot analysis, using monoclonal mouse antibodies against HsPEX19 (BD Biosciences, MA5-17266; 1:1,000 diluted) (Supplementary Fig. 9).

[11] = molecular target: T4, farnesylated human PEX19 C-terminal domain (residues 161-299) (human, UniProt P40855 161-299, farnesyl group on Cys296 (CaaX box)); assay: MST; fluorescein-PEX11B peptide (200 nM stock) constant, unlabelled PEX19 CTD serially diluted from 612 uM to 18 nM; 20 mM potassium phosphate pH 6.5, 50 mM NaCl, 20% methanol, 0.1% Tween; three measurements; conditions: both partners purified
T4 construct: Peroxisomal biogenesis factor 19 (PEX19), human, C-terminal domain, residues 161-299, farnesylated at Cys296; Virtually complete farnesylation by SDS-PAGE and NMR; Isotope-labelled for NMR; also called farnesylated PEX19 CTD; source: E. coli BL21 (DE3), purified; farnesylated in vitro with S. cerevisiae farnesyl transferase, then Ni-NTA and Superdex 75
T4 sequence (looked up): T1 sequence (P40855 161-299)

[12] = molecular target: T5, non-farnesylated human PEX19 C-terminal domain (residues 161-299) (human, UniProt P40855 161-299); assay: as above; conditions: both partners purified
T5 construct: Peroxisomal biogenesis factor 19 (PEX19), human, C-terminal domain, residues 161-299 with the native C-terminus and CaaX box; 15N- (or 13C/2H-) labelled for NMR; Expressed from pETM11; also called PEX19 CTD; non-farnesylated PEX19 CTD; source: E. coli BL21 (DE3), purified (Ni-NTA, TEV cleavage, size-exclusion chromatography)
T5 sequence (looked up): T1 sequence (P40855 161-299)

farnesylated human PEX19 C-terminal domain (residues 161-299) (from UniProt P40855 161-299) (domain or fragment)
fold increase in affinity over non-farnesylated PEX19 CTD [1]: 7 fold

C-terminally extended: C-terminally extended version of the ALDP peptide, which harbors an additional tryptophan (residue 68 to 82) (NRVFLQRLLWLLRLL; UniProt P33897 68-82, looked up, fragment)
helical conformation of free peptide [2]: largely helical conforma

CSCC[C@H](NC(=O)CNC(=O)[C@H](C)NC(=O)[C@H](CCCCN)NC(=O)[C@H](C)NC(=O)[C@H](C)NC(=S)Nc1ccc2c(c1)C(=O)OC21c2ccc(O)cc2Oc2cc(O)ccc21)C(=O)N[C@@H](CC(N)=O)C(=O)N[C@@H](CCCNC(=N)N)C(=O)N[C@H](C(=O)N[C@@H](Cc1ccccc1)C(=O)N[C@@H](CC(C)C)C(=O)N[C@@H](CCC(N)=O)C(=O)N[C@@H](CCCNC(=N)N)C(=O)N[C@@H](CC(C)C)C(=O)N[C@@H](CC(C)C)C(=O)O)C(C)C [fluorescein-labeled ALDP peptide] ({FITC}-AAKAGMNRVFLQRLL-OH; C-terminus assumed)
binding to PEX19 CTD I195K [3]: impaired binding
binding to PEX19 CTD M255R [4]: impaired binding
binding to PEX19 CTD M179R [5]: impaired binding
increase in affinity upon farnesylation of wild type PEX19 CTD [6]: seven

B1: FITC-labelled ALDP peptide (62-AAKAGMNRVFLQRLL-76) (peptide)
peptide: {FITC}-AAKAGMNRVFLQRLL
Kd [7]: 36 µM
Kd [8]: 262 µM

B2: wild type PEX19: full-length wild type human PEX19 expressed in fibroblasts (protein, UniProt P40855 1-299, looked up)
chain: MAAAEEGCSVGAEADRELEELLESALDDFDKAKPSPAPPSTTTAPDASGPQKRSPGDTAKDALFASQEKFFQELFDSELASQATAEFEKAMKELAEEEPHLVEQFQKLSEAAGRVGSDMTSQQEFTSCLKETLSGLAKNATDLQNSSMSEEELTKAMEGLGMDEGDGEGNILPIMQSIMQNLLSKDVLYPSLKEITEKYPEWLQSHRESLPPEQFEKYQEQHSVMCKICEQFEAETPTDSETTQKARFEMVLDLMQQLQDLGHPPKELAGEMPPGLNFDLDALNLSGPPGASGEQCLIM
modifications: full-length
notes: full-length wild type human PEX19 expressed in fibroblasts
cells with rescue of peroxisome biogenesis [9]: ~50%
cells showing restored peroxisomal protein transport (functional complementation) [10]: 60%

B3: N-terminally fluorescein-labelled PEX11B peptide (residues 186-200 of human PEX11B) (peptide)
peptide: fluorescein-LALKLRLQVLLLARV
notes: PEX11B, human, residues 186-200; also called PEX11-derived peptide; source: bought: Peptide Specialty Laboratories GmbH, Heidelberg
Kd [11]: 6.1 ± 0.4 µM
Kd [12]: 29.8 ± 1.6 µM

B4: PEX19/C296A: human PEX19 with a mutation of the farnesylation site (Sacksteder et al) (protein, UniProt P40855 2-296, looked up, variant C296A)
Peroxisomal biogenesis factor …: AAAEEGCSVGAEADRELEELLESALDDFDKAKPSPAPPSTTTAPDASGPQKRSPGDTAKDALFASQEKFFQELFDSELASQATAEFEKAMKELAEEEPHLVEQFQKLSEAAGRVGSDMTSQQEFTSCLKETLSGLAKNATDLQNSSMSEEELTKAMEGLGMDEGDGEGNILPIMQSIMQNLLSKDVLYPSLKEITEKYPEWLQSHRESLPPEQFEKYQEQHSVMCKICEQFEAETPTDSETTQKARFEMVLDLMQQLQDLGHPPKELAGEMPPGLNFDLDALNLSGPPGASGEQA
functional complementation, % of the activity of wild-type PEX19 [9]: ~80%
